Laboratory results: patent US20150285818A1, “Switchable Reporter Enzymes for Homogenous Antibody Detection” (TECHNISCHE UNIVERSITEIT EINDHOVEN, priority 2012, published 2015)

Assays:
anti-HIV1-p17 antibody [1] = experiment: Reporter enzyme activity assay with nitrocefin and anti-HIV1-p17 antibody titration; conditions: 50 μM nitrocefin; for Kd: read-out: dissociation constant (Kd) of reporter enzyme for target antibody, fit of nitrocefin hydrolysis rate vs anti-HIV1-p17 concentration, 1:1 binding model, pH 7.0; for increase in enzymatic activity upon addition of 200 nM anti-HIV1-p17: 0.3 nM sensor, 200 nM antibody
IgG mix = experiment: Specificity of reporter enzyme activity towards nonspecific IgG mix; conditions: up to highest IgG concentration tested (2 μM)
anti-HIV1-p17 antibody [2] = experiment: Reporter enzyme activity assay with fluorescent substrate CCF2-FA in buffer and serum

| Molecule | increase in enzyme activity upon addition of target antibody (anti-HIV1-p17 antibody [1]; saturating anti-HIV1-p17) [fold] | Kd (anti-HIV1-p17 antibody [1]) [nM] | increase in enzymatic activity upon addition of 200 nM anti-HIV1-p17 (anti-HIV1-p17 antibody [1]) | enzymatic (background) activity in the absence of antibody (anti-HIV1-p17 antibody [1]) | increase in enzyme activity with random mix of IgG proteins (IgG mix) | increase in enzyme activity upon addition of 50 nM target antibody in serum (anti-HIV1-p17 antibody [2]; 5 nM sensor, 10% FBS, 10 μM CCF2-FA) [fold] | dynamic range with CCF2-FA as substrate (anti-HIV1-p17 antibody [2]; 1 μM CCF2-FA in buffer, 0.1 nM sensor) [fold] | enzymatic activity in absence of target antibody, 1 μM CCF2-FA compared to 50 μM nitrocefin (anti-HIV1-p17 antibody [2]; buffer) |
| --- | --- | --- | --- | --- | --- | --- | --- | --- |
| Abs2-2: Abs3-2 with the large epitope changed for the shorter WEKIRLR epitope; SEQ ID NO: 20 (protein) MSIQHFRVALIPFFAAFCLPVFAHHHHHHLVPRGSHPETLVKVKDAEDQLGARVGYIELDLNSGKILESFRPEERFPMMSTFKVLLCGAVLSRIDAGQEQLGRRIHYSQNDLVDYSPVTEKHLTDGMTVRELCSAAITMSDNTAANLLLTTIGGPKELTAFLHNMGDHVTRLDRWEPELNEAIPNDERDTTMPVAMATTLRKLLTGELLTLASRQQLIDWMEADKVAGPLLRSALPAGWFIADKSGAGERGSRGIIAALGPDGKPSRIVVIYTTGSQATMDERNRQIAEIGASLIKHWTSGGWEKIRLRGGSGGSGGSGGSGGSGGSGAEAAAKEAAAKEAAAKEAAAKEAAAKEAAAKAGSGGSGGSGGPQGILGQGSGGSGGSGGSGAEAAAKEAAAKEAAAKEAAAKEAAAKEAAAKAGSGGSGGSGGSGGSGGSGGWEKIRLRGGSGGSHGAGVMTGAKFTQIQFGMTRQQVLDIAGAENCETGGSFGDSIHCRGHAAGDYYAYATFGFTSAAADAKVDSKSQEKLLAPSAPTLTLAKFNQVTVGMTRAQVLATVGQGSCTTWSEYYPAYPSTAGVTLSLSCFDVDGYSSTGAYRGSAHLWFTDGVLQGKRQWDLVGEFGGWSHPQFEK | 1.8 | 108 | – | – | – | – | – | – |
| Abs-2: TEM1 β-lactamase fused via linker with WEKIRLR epitopes to BLIP protein as inhibitor domain; SEQ ID NO: 13 (protein) MSIQHFRVALIPFFAAFCLPVFAHHHHHHLVPRGSHPETLVKVKDAEDQLGARVGYIELDLNSGKILESFRPEERFPMMSTFKVLLCGAVLSRIDAGQEQLGRRIHYSQNDLVEYSPVTEKHLTDGMTVRELCSAAITMSDNTAANLLLTTIGGPKELTAFLHNMGDHVTRLDRWEPELNEAIPNDERDTTMPVAMATTLRKLLTGELLTLASRQQLIDWMEADKVAGPLLRSALPAGWFIADKSGAGERGSRGIIAALGPDGKPSRIVVIYTTGSQATMDERNRQIAEIGASLIKHWTSGGWEKIRLRGGSGGSGGSGGSGGSGGSGAEAAAKEAAAKEAAAKEAAAKEAAAKEAAAKAGSGGSGGSGGPQGILGQGSGGSGGSGGSGAEAAAKEAAAKEAAAKEAAAKEAAAKEAAAKAGSGGSGGSGGSGGSGGSGGWEKIRLRGGSGGSHGAGVMTGAKFTQIQFGMTRQQVLDIAGAENCETGGSFGDSIHCRGHAAGDYYAYATFGFTSAAADAKVDSKSQEKLLAPSAPTLTLAKFNQVTVGMTRAQVLATVGQGSCTTWSEYYPAYPSTAGVTLSLSCFDVDGYSSTGFYRGSAHLWFTDGVLQGKRQWDLVGEFGGWSHPQFEK | – | – | no increase in activity | strongly inhibited | – | – | – | – |
| Abs3-1: Abs-3 variant with E104D in β-lactamase and E31A in BLIP; SEQ ID NO: 22 (protein) MSIQHFRVALIPFFAAFCLPVFAHHHHHHLVPRGSHPETLVKVKDAEDQLGARVGYIELDLNSGKILESFRPEERFPMMSTFKVLLCGAVLSRIDAGQEQLGRRIHYSQNDLVDYSPVTEKHLTDGMTVRELCSAAITMSDNTAANLLLTTIGGPKELTAFLHNMGDHVTRLDRWEPELNEAIPNDERDTTMPVAMATTLRKLLTGELLTLASRQQLIDWMEADKVAGPLLRSALPAGWFIADKSGAGERGSRGIIAALGPDGKPSRIVVIYTTGSQATMDERNRQIAEIGASLIKHWTSGGELDRWEKIRLRPGGSGGSGGSGGSGGSGGSGAEAAAKEAAAKEAAAKEAAAKEAAAKEAAAKAGSGGSGGSGGSGGSGGSGAEAAAKEAAAKEAAAKEAAAKEAAAKEAAAKAGSGGSGGSGGSGGSGGSGGELDRWEKIRLRPGGSHGAGVMTGAKFTQIQFGMTRQQVLDIAGAENCATGGSFGDSIHCRGHAAGDYYAYATFGFTSAAADAKVDSKSQEKLLAPSAPTLTLAKFNQVTVGMTRAQVLATVGQGSCTTWSEYYPAYPSTAGVTLSLSCFDVDGYSSTGFYRGSAHLWFTDGVLQGKRQWDLVGEFGGWSHPQFEK | – | 0.17 ± 0.03 | – | low background activity | No significant increase | 10 | 9 | significantly lower |
| Abs3-2: Abs-3 variant with E104D in β-lactamase and F142A in BLIP; SEQ ID NO: 37 (protein) MSIQHFRVALIPFFAAFCLPVFAHHHHHHLVPRGSHPETLVKVKDAEDQLGARVGYIELDLNSGKILESFRPEERFPMMSTFKVLLCGAVLSRIDAGQEQLGRRIHYSQNDLVDYSPVTEKHLTDGMTVRELCSAAITMSDNTAANLLLTTIGGPKELTAFLHNMGDHVTRLDRWEPELNEAIPNDERDTTMPVAMATTLRKLLTGELLTLASRQQLIDWMEADKVAGPLLRSALPAGWFIADKSGAGERGSRGIIAALGPDGKPSRIVVIYTTGSQATMDERNRQIAEIGASLIKHWTSGGELDRWEKIRLRPGGSGGSGGSGGSGGSGGSGAEAAAKEAAAKEAAAKEAAAKEAAAKEAAAKAGSGGSGGSGGSGGSGGSGAEAAAKEAAAKEAAAKEAAAKEAAAKEAAAKAGSGGSGGSGGSGGSGGSGGELDRWEKIRLRPGGSHGAGVMTGAKFTQIQFGMTRQQVLDIAGAENCETGGSFGDSIHCRGHAAGDYYAYATFGFTSAAADAKVDSKSQEKLLAPSAPTLTLAKFNQVTVGMTRAQVLATVGQGSCTTWSEYYPAYPSTAGVTLSLSCFDVDGYSSTGAYRGSAHLWFTDGVLQGKRQWDLVGEFGGWSHPQFEK | – | 0.19 ± 0.02 | – | low background activity | No significant increase | – | – | – |
| Abs-1: TEM1 β-lactamase fused via linker with WEKIRLR epitopes to weak-binding RRGHYY peptide inhibitor; SEQ ID NO: 12 (protein) MSIQHFRVALIPFFAAFCLPVFAHHHHHHLVPRGSHPETLVKVKDAEDQLGARVGYIELDLNSGKILESFRPEERFPMMSTFKVLLCGAVLSRIDAGQEQLGRRIHYSQNDLVEYSPVTEKHLTDGMTVRELCSAAITMSDNTAANLLLTTIGGPKELTAFLHNMGDHVTRLDRWEPELNEAIPNDERDTTMPVAMATTLRKLLTGELLTLASRQQLIDWMEADKVAGPLLRSALPAGWFIADKSGAGERGSRGIIAALGPDGKPSRIVVIYTTGSQATMDERNRQIAEIGASLIKHWTSGGWEKIRLRGGSGGSGGSGGSGGSGGSGAEAAAKEAAAKEAAAKEAAAKEAAAKEAAAKAGSGGSGGSGGPQGILGQGSGGSGGSGGSGAEAAAKEAAAKEAAAKEAAAKEAAAKEAAAKAGSGGSGGSGGSGGSGGSGGWEKIRLRGGSGGSHGRRGHYYGEFGGWSHPQFEK | – | – | no increase in enzymatic activity | – | – | – | – | – |
